The results in this text go back to patent US20220204643A1 (published 2022).

In experiment [1] the target is T1, nudix hydrolase 21 (human, UniProt O43809 2-227).
T1 construct: HuProt array protein, full-length recombinant from yeast; also called NUDT21

Experiment [2] concerns the target T2, zinc finger protein 431, transcript variant 2 (human, UniProt Q8TF32 1-576).
T2 construct: HuProt array protein, full-length recombinant from yeast; also called ZNF431

The target in experiment [3] is T3, Zinc finger protein 699 (human, UniProt Q32M78 1-642).
T3 construct: HuProt array protein, full-length recombinant from yeast; also called ZNF699
T3 sequence (Q32M78 whole entry): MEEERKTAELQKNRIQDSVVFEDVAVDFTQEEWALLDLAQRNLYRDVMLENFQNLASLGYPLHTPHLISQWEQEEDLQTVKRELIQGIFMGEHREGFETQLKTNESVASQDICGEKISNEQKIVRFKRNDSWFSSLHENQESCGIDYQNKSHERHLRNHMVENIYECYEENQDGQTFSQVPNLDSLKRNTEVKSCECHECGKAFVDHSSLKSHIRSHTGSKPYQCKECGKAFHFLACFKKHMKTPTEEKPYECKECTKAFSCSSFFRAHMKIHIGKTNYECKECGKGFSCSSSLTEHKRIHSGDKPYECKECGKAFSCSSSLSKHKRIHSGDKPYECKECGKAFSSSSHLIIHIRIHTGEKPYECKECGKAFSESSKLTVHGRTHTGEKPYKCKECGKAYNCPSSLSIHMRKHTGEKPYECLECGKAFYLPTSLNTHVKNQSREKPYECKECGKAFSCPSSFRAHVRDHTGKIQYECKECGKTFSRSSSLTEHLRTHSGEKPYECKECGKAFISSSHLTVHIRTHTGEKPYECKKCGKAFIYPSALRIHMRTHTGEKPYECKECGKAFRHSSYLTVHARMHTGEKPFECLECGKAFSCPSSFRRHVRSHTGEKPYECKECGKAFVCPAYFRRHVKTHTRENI

The target of experiment [4] is T4, enolase 2 (human, UniProt P09104 2-434).
T4 construct: HuProt array protein, full-length recombinant from yeast; also called ENO2
T4 sequence (P09104 2-434 limits assumed): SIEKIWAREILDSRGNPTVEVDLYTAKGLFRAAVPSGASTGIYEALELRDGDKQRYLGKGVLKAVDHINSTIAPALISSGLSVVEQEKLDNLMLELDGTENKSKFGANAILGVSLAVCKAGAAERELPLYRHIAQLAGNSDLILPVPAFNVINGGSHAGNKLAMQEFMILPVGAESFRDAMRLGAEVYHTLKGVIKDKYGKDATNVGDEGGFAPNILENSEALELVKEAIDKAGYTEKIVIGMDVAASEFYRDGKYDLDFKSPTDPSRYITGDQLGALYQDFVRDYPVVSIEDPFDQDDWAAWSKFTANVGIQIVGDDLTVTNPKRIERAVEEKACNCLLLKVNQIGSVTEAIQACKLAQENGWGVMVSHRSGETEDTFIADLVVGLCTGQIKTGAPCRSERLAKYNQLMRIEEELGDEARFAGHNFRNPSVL

The target of experiment [5] is T5, arginine and glutamate rich 1 (human, UniProt Q9NWB6 1-273).
T5 construct: HuProt array protein, full-length recombinant from yeast; also called ARGLU1
T5 sequence: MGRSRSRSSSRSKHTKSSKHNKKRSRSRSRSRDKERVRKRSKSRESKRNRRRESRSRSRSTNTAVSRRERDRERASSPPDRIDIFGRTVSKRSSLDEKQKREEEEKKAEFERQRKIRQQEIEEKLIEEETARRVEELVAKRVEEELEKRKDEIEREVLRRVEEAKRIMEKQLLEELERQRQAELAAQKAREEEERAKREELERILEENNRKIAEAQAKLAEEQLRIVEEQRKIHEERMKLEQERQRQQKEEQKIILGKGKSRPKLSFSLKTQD

Experiment [6] has as its target T6, SAS-6 centriolar assembly protein, transcript variant 2 (human, UniProt Q6UVJ0 168-657).
T6 construct: HuProt array protein, full-length recombinant from yeast; also called SASS6
T6 sequence: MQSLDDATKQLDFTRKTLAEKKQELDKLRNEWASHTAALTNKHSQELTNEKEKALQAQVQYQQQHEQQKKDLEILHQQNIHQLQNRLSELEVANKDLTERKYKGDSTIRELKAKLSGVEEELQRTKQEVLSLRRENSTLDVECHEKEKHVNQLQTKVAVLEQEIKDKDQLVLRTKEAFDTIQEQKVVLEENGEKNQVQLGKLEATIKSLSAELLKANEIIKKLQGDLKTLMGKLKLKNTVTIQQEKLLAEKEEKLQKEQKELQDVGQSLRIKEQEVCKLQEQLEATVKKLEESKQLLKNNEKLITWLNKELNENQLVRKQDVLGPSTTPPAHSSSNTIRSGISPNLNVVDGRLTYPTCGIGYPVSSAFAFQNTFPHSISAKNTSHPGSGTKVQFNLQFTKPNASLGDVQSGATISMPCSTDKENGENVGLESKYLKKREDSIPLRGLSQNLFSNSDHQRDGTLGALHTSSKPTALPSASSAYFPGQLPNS

Experiment [7] deals with T7, zinc finger protein 296 (human, UniProt Q8WUU4 1-475).
T7 construct: HuProt array protein, full-length recombinant from yeast; also called ZNF296
T7 sequence: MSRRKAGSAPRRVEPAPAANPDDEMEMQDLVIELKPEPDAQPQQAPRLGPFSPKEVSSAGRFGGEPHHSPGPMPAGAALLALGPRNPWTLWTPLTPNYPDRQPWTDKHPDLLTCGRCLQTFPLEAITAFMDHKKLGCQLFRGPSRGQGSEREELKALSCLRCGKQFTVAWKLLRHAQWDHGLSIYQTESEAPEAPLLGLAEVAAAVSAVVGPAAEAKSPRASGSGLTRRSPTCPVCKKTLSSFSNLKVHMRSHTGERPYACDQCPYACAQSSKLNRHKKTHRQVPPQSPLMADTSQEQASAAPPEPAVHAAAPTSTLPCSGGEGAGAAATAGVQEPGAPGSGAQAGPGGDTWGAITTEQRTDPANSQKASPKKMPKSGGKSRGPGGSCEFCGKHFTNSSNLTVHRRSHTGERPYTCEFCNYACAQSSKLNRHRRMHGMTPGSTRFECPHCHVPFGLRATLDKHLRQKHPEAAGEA

Experiment [8] concerns the target phosphodiesterase 5A, transcript variant 1 (human, UniProt O76074 1-875).
Experiment [9] has as its target T8, Bcl2 like 1 (human, UniProt Q07817 1-233).
T8 construct: HuProt array protein, full-length recombinant from yeast; also called BCL2L1

Experiment [10] deals with T9, microtubule associated scaffold protein 2, transcript variant 2 (human, UniProt Q5JR59 1040-1369).
T9 construct: HuProt array protein, full-length recombinant from yeast; also called MTUS2
T9 sequence: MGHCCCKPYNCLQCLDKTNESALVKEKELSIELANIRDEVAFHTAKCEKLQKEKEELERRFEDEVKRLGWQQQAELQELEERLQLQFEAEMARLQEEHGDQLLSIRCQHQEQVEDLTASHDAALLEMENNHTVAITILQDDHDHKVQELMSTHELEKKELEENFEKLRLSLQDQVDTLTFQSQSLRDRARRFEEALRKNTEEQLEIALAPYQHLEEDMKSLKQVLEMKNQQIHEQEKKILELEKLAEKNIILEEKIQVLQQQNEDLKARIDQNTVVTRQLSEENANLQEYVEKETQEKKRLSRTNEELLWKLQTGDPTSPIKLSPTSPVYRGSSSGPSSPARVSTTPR

Experiment [11] concerns the target T10, anterior gradient 3, protein disulphide isomerase family member (human, UniProt Q8TD06 22-166).
T10 construct: HuProt array protein, full-length recombinant from yeast; also called AGR3
T10 sequence: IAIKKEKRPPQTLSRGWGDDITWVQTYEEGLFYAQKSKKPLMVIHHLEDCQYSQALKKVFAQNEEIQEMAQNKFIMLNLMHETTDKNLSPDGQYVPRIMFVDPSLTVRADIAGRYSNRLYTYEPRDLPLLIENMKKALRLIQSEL

Experiment [12] has as its target T11, proteasome 26S subunit, non-ATPase 4, transcript variant 2 (human, UniProt P55036 1-377).
T11 construct: HuProt array protein, full-length recombinant from yeast; also called PSMD4

Experiment [13] concerns the target T12, Src like adaptor, transcript variant 1 (human, UniProt Q13239 2-276).
T12 construct: HuProt array protein, full-length recombinant from yeast; also called SLA
T12 sequence: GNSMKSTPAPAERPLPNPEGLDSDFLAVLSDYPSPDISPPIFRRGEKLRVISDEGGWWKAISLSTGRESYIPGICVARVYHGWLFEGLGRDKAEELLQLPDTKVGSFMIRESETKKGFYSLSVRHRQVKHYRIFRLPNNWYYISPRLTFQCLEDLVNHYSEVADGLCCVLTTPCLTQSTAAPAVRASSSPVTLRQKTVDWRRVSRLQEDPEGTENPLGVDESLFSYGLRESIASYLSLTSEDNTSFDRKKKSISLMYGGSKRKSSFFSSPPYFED

The target of experiment [14] is T13, PAGE family member 2 (human, UniProt Q7Z2X7 1-111).
T13 construct: HuProt array protein, full-length recombinant from yeast; also called PAGE2
T13 sequence: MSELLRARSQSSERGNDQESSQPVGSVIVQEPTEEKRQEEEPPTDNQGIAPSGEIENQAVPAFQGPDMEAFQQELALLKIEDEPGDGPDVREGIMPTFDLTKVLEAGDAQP

Experiment [15] deals with T14, keratin associated protein 12-3 (human, UniProt P60328 1-96).
T14 construct: HuProt array protein, full-length recombinant from yeast; also called KRTAP12-3
T14 sequence: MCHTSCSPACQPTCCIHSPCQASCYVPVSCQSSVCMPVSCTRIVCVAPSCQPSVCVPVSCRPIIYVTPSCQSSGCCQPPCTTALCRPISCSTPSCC

In experiment [16] the target is T15, X-linked inhibitor of apoptosis, transcript variant 2 (human, UniProt P98170 1-497).
T15 construct: on protein array; also called XIAP
T15 sequence (P98170 whole entry, change not shown): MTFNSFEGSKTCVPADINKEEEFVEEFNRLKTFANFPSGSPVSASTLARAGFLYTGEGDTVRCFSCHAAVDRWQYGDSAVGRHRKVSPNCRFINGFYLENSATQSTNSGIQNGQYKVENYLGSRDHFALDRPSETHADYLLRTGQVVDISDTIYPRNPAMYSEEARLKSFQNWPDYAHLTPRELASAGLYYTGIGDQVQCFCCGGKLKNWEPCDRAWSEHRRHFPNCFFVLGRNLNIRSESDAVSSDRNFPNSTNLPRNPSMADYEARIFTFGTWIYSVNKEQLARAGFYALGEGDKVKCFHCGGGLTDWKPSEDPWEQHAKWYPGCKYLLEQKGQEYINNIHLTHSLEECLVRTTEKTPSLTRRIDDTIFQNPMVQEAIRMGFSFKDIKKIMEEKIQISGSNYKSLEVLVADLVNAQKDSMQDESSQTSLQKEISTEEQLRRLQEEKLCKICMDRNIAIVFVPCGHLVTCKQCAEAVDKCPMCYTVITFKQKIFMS
As to the kind of experiment: protein array.

T1 sequence (O43809 2-227 limits assumed): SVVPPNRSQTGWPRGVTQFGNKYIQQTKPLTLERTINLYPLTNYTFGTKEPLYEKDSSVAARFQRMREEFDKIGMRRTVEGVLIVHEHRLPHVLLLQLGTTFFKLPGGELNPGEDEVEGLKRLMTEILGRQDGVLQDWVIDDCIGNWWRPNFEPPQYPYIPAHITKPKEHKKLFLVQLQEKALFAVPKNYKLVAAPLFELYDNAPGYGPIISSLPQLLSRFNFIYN
T11 sequence (P55036 whole entry, change not shown): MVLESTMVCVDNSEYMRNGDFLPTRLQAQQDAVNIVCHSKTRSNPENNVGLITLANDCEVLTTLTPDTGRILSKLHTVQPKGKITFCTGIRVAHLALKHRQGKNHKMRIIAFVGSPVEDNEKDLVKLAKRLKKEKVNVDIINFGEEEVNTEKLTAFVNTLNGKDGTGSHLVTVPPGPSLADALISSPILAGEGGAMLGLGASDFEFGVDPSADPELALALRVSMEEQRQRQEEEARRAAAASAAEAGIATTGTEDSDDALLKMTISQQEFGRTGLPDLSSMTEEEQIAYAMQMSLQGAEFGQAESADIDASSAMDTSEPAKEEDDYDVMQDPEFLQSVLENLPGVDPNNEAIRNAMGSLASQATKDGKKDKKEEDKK
T2 sequence (Q8TF32 other isoform, or with tags, fused parts or gaps mutant limits assumed): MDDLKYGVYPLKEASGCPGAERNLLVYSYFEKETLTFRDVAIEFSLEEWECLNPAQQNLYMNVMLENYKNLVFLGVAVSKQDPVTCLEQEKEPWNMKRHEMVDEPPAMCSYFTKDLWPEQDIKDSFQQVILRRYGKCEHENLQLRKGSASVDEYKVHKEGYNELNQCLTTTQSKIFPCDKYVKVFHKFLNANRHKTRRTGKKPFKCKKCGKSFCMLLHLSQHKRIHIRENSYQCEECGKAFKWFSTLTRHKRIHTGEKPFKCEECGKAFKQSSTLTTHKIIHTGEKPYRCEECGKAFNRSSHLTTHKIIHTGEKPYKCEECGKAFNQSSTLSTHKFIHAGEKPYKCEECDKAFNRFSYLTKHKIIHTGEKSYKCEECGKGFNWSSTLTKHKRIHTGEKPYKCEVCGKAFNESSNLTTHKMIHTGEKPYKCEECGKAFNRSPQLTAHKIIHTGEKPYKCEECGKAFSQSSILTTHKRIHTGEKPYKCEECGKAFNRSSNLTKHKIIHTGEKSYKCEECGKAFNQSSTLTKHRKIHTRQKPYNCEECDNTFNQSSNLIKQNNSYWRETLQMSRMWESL
T8 sequence (Q07817 whole entry): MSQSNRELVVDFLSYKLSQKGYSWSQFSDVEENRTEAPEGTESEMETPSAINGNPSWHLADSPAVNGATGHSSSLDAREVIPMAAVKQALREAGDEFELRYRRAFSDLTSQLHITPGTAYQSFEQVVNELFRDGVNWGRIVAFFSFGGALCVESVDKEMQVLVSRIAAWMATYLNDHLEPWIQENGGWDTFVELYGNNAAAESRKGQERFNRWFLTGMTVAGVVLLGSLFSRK

B1: TMEL1033 (antibody, V domains shown)
VH: PVQLQESGPGLVKPSETLSLTCTVSGGSVSSGSYYWSWIRQPPGKGLEWIGYIYYSGSTNYNPSLKSRVTISVDTSKNQFSLKLSSVTAADTAVYYCARDRGDYVTHWFDPWGQGTLVTVSS
VL: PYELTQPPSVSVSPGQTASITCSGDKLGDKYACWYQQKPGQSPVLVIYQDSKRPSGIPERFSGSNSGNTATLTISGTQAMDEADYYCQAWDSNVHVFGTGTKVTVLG
notes: detected with anti-human IgG Fc
Regarding B1, the binding result in [1], in experiment [2] and in experiment [3] was “binds” in each case.

B2: TMEL1037 (antibody, V domains shown)
VH: PLQLQESGPGLVKPSETLSLTCTVSGGSISSSSYYWGWIRQSPGKGLEWMGSIYYSGSTYYNPSLKSRVTISVDTSKNQFSLNLSSVTAADTAVYYCARHDYRNYFDYWGQGTLVTVSS
VL: not shown
notes: as for B1
On to B2, for which the binding result in experiment [4] is on record as “binds”.

B3: TMEL1031 (antibody, V domains shown)
VH: EVQLVESGGGLVQPGGSLRLSCAASGFTVSSNYMSWVRQAPGKGLEWVSVIYSGGSTYYADSVKGRFTISRDNSKNTLSLQMNSLRAEDTAVYYCARESSAAGYDYWGQGTLVTVSS
VL: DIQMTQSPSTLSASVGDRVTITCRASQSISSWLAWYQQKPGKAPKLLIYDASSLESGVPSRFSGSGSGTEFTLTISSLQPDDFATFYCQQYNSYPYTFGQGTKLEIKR
notes: as for B1
With B3, the binding result in experiment [5] and in experiment [6] was “binds” each time.

B4: TMEL1028 (antibody, V domains shown)
VH: QVQLVQSGAEVKKPGASVKVSCKASGYTFTSYGISWVRQAPGQGLEWMGWISAYNGNTNYAQKLQGRVTMTTDTSTSTAYMELRSLTSDDTAVYYCARDQGLERANWFDPWGQGTLVTVSS
VL: not shown
notes: as for B1
For B4, the binding result in [7] and in experiment [8] was “binds” in each case.

B5: TMEL1030 (antibody, V domains shown)
VH: QVQLQESGPGLVKPSGTLSLTCAVSGGSISSSNCWSWVRQPPGKGLEWLGEICHSGSTSYNPSLKSRVTISVDKSKNQFSLKLRSVTAADTAVYYCARESPLTVVFDYWGQGTLVTVSS
VL: DIQMTQSPSSLSASVGDRVTITCRASQGIRNDLGWFQQKPGKAPKRLIYAASNLPSGVSSRFSGSGSGTEFTLTISSLQPEDFATYYCLQHNNYPLTFGQGTKVEFKR
notes: as for B1
As to B5, the binding result in [9] is on record as “binds”.

B6: TMEL1027 (antibody, V domains shown)
VH: QVQLVQSGAEVKKPGASVKVSCKASGYTFTVYYMHWVRQAPGQGLEWMGRINPNSGGTNYAQKFQGRVTMTRDTSISTAYMELSRLTSDDTAVYYCARVVVVGTDYGMDVWGQGTTVTVSS
VL: VSSELTQDPAVSVALGQTVRITCQGDSLRSYYASWYQQRPGQAPVLVIYGKNNRPSGIPDRFSGSSSGNTASLTITGAQAEDEADYYCNSRDSSGNHVFGTGTKVTVLG
notes: as for B1
Take B6: the binding result in experiment [10] is listed as “binds”.

B7: TMEL1020 (antibody, V domains shown)
VH: QVHLVQSGAEVKKPGASVKVSCKASGYTFTNYFIHWVRQAPGQGPEWMGVINPSFGSTTYAQKLQGRVTMTRETSTSTVYMELSSLRSEDTAVYYCARESLDSASYSTIAHWGQGTLVTVSS
VL: EIVLAQSPGTLYLSPGERATLSCRASQSVRGNYLAWYQQRPGQAPRLLIYGASSRATGIPDRFGGSGSGTDFTLTITRLLPEDFAVYYCHQYGSSPRTFGQGTKVEIKR
notes: as for B1
Regarding B7, the binding result in experiment [11] is listed as “binds”.

B8: TMEL1032 (antibody, V domains shown)
VH: QVQLVQSGAEVRKPGASVKVSCKASGYTFTTYYIHWVRQAPGQGLEWMGLINPNGGTTNYAQKFQGRLSMTTDTSTNTVYMELSSLRSEDTAVYYCARKLMSGIVSRGWFDPWGQGTLVTVSS
VL: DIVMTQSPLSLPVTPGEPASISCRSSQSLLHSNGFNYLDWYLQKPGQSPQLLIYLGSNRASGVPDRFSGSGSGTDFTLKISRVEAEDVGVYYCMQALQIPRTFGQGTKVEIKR
notes: as for B1
Take B8: the binding result in [12] and in experiment [13] was “binds” each time.

B9: TMEL1035 (antibody, V domains shown)
VH: QVQLVESGGGVVQPGRSLRLSCAASGFTFSSYAMHWVRQAPGKGLEWVAVISYDGSNKYYADSVKGRFTISRDNSKNTLYLQMNSLRAEDTAVYYCASPIAVAAPFAYWGQGTLVTVSS
VL: VSSELTQDPAVSVALGQTVRITCQGDSLRSYYASWYQQKPGQAPVLVIYGKNNRPSGIPDRFSGSSSGNTASLTITGAQAEDEADYYCNSRDSSGNLYVFGTGTKVTVLG
notes: as for B1
As for B9, the binding result in experiment [14] and in experiment [15] was “binds” throughout.

B10: TBRE1032 (antibody, V domains shown)
VH: EVQLVESGGGLVQPGGSLRLSCAASGFTFSSYDFHWVRQPTGKGLEWVSAIGTAGDTLYLDSVKGRFTISRENAKNSLYLQMNSLRAGDTAVYYCARVNWNSDTFDSWGQGTLVTVSS
VL: VSSELTQDPAVSVALGQTVRITCQGDSLRRYYASWYQQKAGQAPILVIYGENNRPSGIPDRFSGSGSGNTASLTITGAQAEDEADYYCDSRDSSGNLVVFGGGTKLTVL
notes: VH/VL only
Take B10: in experiment [16], the binding result is on record as “binds”.
